Laboratory results from paper PMC3372766.
One block for each substance: values may come before it.

Assays:
+315N ClpX^ΔN (E. coli) = +315N ClpX^ΔN (E. coli) (UniProt P0A6H1)
[1] = target: T66C P388C ClpX^ΔN (E. coli) (UniProt P0A6H1); experiment: cross-linking
[2] = target: T66C P388C E109C N331C ClpX^ΔN (E. coli) (UniProt P0A6H1); experiment: cross-linking
Δ315N ClpX^ΔN (E. coli) = Δ315N ClpX^ΔN (E. coli) (UniProt P0A6H1)

- stoichiometry N (+315N ClpX^ΔN (E. coli)): 6
Substance: +315N ClpX^ΔN (from UniProt P0A6H1 61-423) (enzyme)

- percent of the protein as disulfide-bonded circular hexamer after oxidation [1]: 75%
- stoichiometry N [1]: 6
Substance: T66C P388C ClpX^ΔN (from UniProt P0A6H1 61-423) (enzyme)

- percent of the protein as circular hexamer after oxidation [2]: > 90%
- stoichiometry N [2]: 6
Substance: T66C P388C E109C N331C ClpX^ΔN (from UniProt P0A6H1 61-423) (enzyme)

- stoichiometry N (Δ315N ClpX^ΔN (E. coli)): 6
Substance: Δ315N ClpX^ΔN (from UniProt P0A6H1 61-423) (enzyme)
